Laboratory results: patent publication US20120107329

Target: recombinant human zonulin/pre-HP2 with a 6×His tag at the C-terminus, from baculovirus-infected Sf9 cells (UniProt P00738)
Sequence (P00738 19-406, tags left off): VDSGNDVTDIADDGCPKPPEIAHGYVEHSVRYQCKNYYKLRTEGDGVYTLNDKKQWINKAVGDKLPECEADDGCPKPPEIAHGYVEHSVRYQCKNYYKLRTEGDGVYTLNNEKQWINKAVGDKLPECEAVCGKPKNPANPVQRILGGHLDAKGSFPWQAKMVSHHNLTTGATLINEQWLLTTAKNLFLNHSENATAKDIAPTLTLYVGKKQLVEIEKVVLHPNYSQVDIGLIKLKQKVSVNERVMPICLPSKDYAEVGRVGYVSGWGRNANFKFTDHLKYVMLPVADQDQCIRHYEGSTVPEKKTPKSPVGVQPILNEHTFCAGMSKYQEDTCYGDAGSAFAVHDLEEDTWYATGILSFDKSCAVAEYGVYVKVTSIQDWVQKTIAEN

thrombin
proteolytic cleavage, SDS-PAGE: Matriptase, urokinase, thrombin, and plasma kallikrein did not cleave pre-HP2

plasma kallikrein
proteolytic cleavage, SDS-PAGE: Matriptase, urokinase, thrombin, and plasma kallikrein did not cleave pre-HP2

urokinase
proteolytic cleavage, SDS-PAGE: Matriptase, urokinase, thrombin, and plasma kallikrein did not cleave pre-HP2

plasmin
proteolytic cleavage, SDS-PAGE: plasmin caused complete degradation of the protein

matriptase
proteolytic cleavage, SDS-PAGE: Matriptase, urokinase, thrombin, and plasma kallikrein did not cleave pre-HP2

trypsin (intestinal serine protease; trypsin-agarose beads, Sigma T-1763)
proteolytic cleavage, SDS-PAGE: treatment with the intestinal serine protease trypsin led to the appearance of two major bands that migrated with molecular weights compatible with the a2 and b subunits of zonulin
